In patent US20210315969A1, “GLYCOPROTEINS HAVING LIPID MOBILIZING PROPERTIES AND THERAPEUTIC USES THEREOF” (Aston University, priority 2008, published 2021):

Assays:
[1] = ZAG i.v. administration to ob/ob mice, 5 day study (body weight, temperature, plasma metabolites); assay type: in vivo
Method: Animals—Mice—Homozygous obese (ob/ob) mice from the colony maintained at Aston University were used in the present study. The origin and characteristics of Aston ob/ob mice have been previously described. Male mice (20-21 weeks old, weight 90-100 g) were grouped into three per cage in an air conditioned room at 22 ±2° C. with a 12 h-light:12 h-dark cycle and fed a rat and mouse breeding diet (Special Diet Services, Witham, UK) and tap water ad libitum. They were administered ZAG (35 μg) in PBS (100 μl) b.d. by i.v. administration and body weight and food and water intake were monitored daily. Control mice received PBS alone. Body temperature was measured daily by the use of a rectal thermometer (RS Components, Northants, UK). All animal experiments were carried out in accordance with the U.K. Animals (Scientific Procedures) Act 1986.
Serum Metabolite Determinations—Non-esterified fatty acids (NEFA) were determined using a Wako-ASC-ACOD kit (Wako Chemical GmbH, Neuss, Germany). Triglycerides were determined using a Triglyceride kit (Sigma Chemical Co., Poole, United Kingdom) and 3-hydroxybutyrate by a quantitative enzymatic determination kit (Sigma). Glucose was measured using a glucose analyser (Beckman, Irvine, Calif.) and glycerol was determined enzymatically using the method of Wieland as described in “Methods of Enzymatic Analysis” (Ed, Bergmeyer, H. U.) Vol. 3, pp1404-1409, published by Academic Press, London (1974).

[2] = test system: proteasome 'chymotrypsin-like' activity, caspase-3 and caspase-8; test: Proteasome 'chymotrypsin-like' and caspase activity in gastrocnemius muscle; assay type: in vivo; settings: ob/ob mice treated 5 days
Method: Gastrocnemius muscle was homogenised in 20 mM Tris, pH7.5, 2 mM ATP, 5 mM MgCl2 and 50 mM DTT at 4° C., sonicated and centrifuged at 18,000 g for 10 min at 4° C. to pellet insoluble material, and the resulting supernatant was used to measure ‘chymotrypsin-like’ enzyme activity in the presence or absence of the proteasome inhibitor lactacystin (10 μM). Only lactacystin suppressible activity was considered as true proteasome activity. The activity of caspase-3 was determined by the release of AMC from AcAsp.Gly.Val.Asp.AMC (SEQ ID NO: 3), and the activity of caspase-8 was determined by the release of 7-amino-4-trifluromethylcoumarin (AFC) from the specific substrate Z-Ile Glu Phe Thr Asp-AFC (SEQ ID NO: 4), using the supernatant from above (50 ug protein), and either the caspase-3 or −8 substrate (10 μM) for ih 37° C. in the presence or absence of the caspase-3 (AcAsp Glu Val Asp-CHO) (SEQ ID NO: 5) or caspase-8 (Ile Glu Phe Thr Asp-CHO) (SEQ ID NO: 6) inhibitors (100 μM). The increase in fluorescence due to […], while the increase in fluorescence due to AFC was measured with an excitation wavelength of 400 nm and an emission wavelength of 505 nm. The difference in values in the absence and presence of the caspase inhibitors was a measure of activity.

[3] = ob/ob mice treated for 120 h, wet weight

B1: Zinc-α2-glycoprotein (protein, listed as Homo sapiens)
chain: QENQDGRYSLTYIYTGLSKHVEDVPAFQALGSLNDLQFFRYNSKDRKSQPMGLWRQVEGMEDWKEDSQLQKAREDMETLKDIVEYYNDSNGSHVLQGRFGCEIENNRSSGAFWKYYYDGKDYIEFNKEIPAWVPFDPAAQITKQKWEAEPVYVQRAKAYLEEECPATLRKYLKYSKNILDRQDPPSVVVTSHQAPGEKKKLKCLAYDFYPGKIDVHWTRAGQVQEPELRGDVLHNGNGTYQSWVVVAVPPQDTAPYSCHVQHSSLAQPLVVPWEAS
notes: recombinant human Zinc-α2-glycoprotein, lipid mobilizing factor, expressed in HEK293F cells
BAT ([1]; ob/ob mice treated for 120 h): 0.73 ± 0.12 p < 0.01 g | NEFA (plasma) ([1]; ob/ob mice treated for 120 h): 0.73 ± 0.05 p < 0.001 mEq/L | TG (plasma) ([1]; ob/ob mice treated for 120 h): 0.9 ± 0.1 p < 0.05 mmol/L | Gastrocncinius [1, 3]: 1.12 ± 0.14 p < 0.01 g | Soleus [1, 3]: 0.80 ± 0.09 p < 0.01 g | rise of body temperature ([1]; ob/ob mice, after 4 days of ZAG administration): 0.4 °C | weight difference between the groups ([1]; ob/ob mice, after 5 days, ZAG vs PBS): 3.5 g | caspases-3 and -8 [2]: attenuated
